We go through one molecule from US20220251236A1 (Boehringer Ingelheim, published 2022).

The target in assay [1] is T1, Cyno DLL3-His (cynomolgus monkey, UniProt Q9NYJ7 27-492 (human entry)).
T1 construct: also called cy DLL3; recombinant cyno DLL3-ECD
T1 chain: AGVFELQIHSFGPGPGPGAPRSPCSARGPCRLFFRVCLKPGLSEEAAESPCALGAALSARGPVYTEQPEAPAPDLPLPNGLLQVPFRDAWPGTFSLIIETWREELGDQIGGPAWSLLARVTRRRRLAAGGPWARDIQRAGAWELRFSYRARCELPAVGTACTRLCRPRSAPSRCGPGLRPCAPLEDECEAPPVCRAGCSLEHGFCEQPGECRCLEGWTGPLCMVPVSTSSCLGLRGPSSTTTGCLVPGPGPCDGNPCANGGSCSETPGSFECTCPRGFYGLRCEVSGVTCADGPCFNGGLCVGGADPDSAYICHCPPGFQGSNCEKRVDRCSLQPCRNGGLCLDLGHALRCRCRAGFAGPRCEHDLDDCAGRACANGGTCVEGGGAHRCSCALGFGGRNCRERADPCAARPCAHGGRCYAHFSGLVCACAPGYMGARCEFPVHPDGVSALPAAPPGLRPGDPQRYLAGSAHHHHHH
Briefly: SPR; ratio of the KD values for human and cyno DLL3. The method, then:
(§1) The binding affinity of purified DLL3/CD3 bispecific constructs for recombinant human and cyno DLL3-ECD and Fc-fusion proteins of human and cyno CD3 εγ subunits was determined by Surface Plasmon Resonance (SPR), using a ProteOn XPR36 instrument (Bio-Rad). The running buffer and all dilutions (except where stated) were done in PBS-T-EDTA. The GLM sensor chip (Bio-Rad) was normalized and pre-conditioned as per the manufacturer's recommendations. The sensor chip was activated with equal mixture of EDC/s-NHS in the horizontal direction for 300 sec at a flow rate of 30 ul/min and immobilized with protein A/G (20 ug/ml in 10 mM acetate pH 4.5) in the horizontal direction for 300 sec at a flowrate of 30 ul/min resulting in ˜5000 RU of protein A/G on the surface. The sensor chip was deactivated with 1M ethanolamine HCl in the horizontal direction for 300 sec at a flowrate of 30 μl/min.
(§2) For binding kinetic determination to DLL3, bispecific molecules were captured individually on the protein A/G surface vertically for 250 sec at a flowrate of 25 μl/min. The baseline was stabilized by injecting PBS-T-EDTA for 60 sec at a flowrate of 40 μl/min horizontally. The analyte (hu DLL3 or cy DLL3) was injected horizontally over the captured antibody for 600 sec at a flowrate of 40 μl/min and a dissociation for 2700 sec.
(§3) The inter spot (interactions with sensor surface) and blank (PBS-T-EDTA) were subtracted from the raw data.

Assay [2] addresses T2, chicken egg white lysozyme (chicken, UniProt P00698 19-147).
T2 construct: also called Lysozyme (positive)
Briefly: SPR (Biacore T200), lysozyme coupled to CM5 chip, non-specific binding assay. As to the method: The experiment was performed on a Biacore T200. The dilution, surface preparation, and binding experiments were performed at 25° C. in 1×HBS-EP buffer prepared from 10× HBS-EP. The flow rate for both the immobilization protocol and binding experiment was at 5 μL/min.
To prepare the surface for the non-specific binding experiment, chicken egg white lysozyme and trypsin inhibitor from glycine max soybean were coupled manually to a series S CM5 chip with the surface density of 3000-5000 RU using the amine coupling kit according to the manufacture instructions.
Samples were prepared at 1 μM in 1×HBS-EP buffer. The samples were injected over activated surfaces with a 10 min association and 10 min dissociation. The data was collected using Biacore T200 Control Software version 2.0.1 and analyzed using Biacore T200 Evaluation Software version 3.0.
On the technique in general: Surface plasmon resonance follows binding to a sensor surface in real time, without labels.

Assay [3] addresses T1, Cyno DLL3-His. Briefly: SPR (ProteOn XPR36), bispecific captured on protein A/G, DLL3 as analyte, Example 4A. The method, then: as §1, §2, §3
The target in a further assay is T3, Human CD3 E+G HuFc-6xHis (human).
T3 construct: also called hu CD3εγ-Fc
T3 sequence (chain, as listed by the source limits assumed): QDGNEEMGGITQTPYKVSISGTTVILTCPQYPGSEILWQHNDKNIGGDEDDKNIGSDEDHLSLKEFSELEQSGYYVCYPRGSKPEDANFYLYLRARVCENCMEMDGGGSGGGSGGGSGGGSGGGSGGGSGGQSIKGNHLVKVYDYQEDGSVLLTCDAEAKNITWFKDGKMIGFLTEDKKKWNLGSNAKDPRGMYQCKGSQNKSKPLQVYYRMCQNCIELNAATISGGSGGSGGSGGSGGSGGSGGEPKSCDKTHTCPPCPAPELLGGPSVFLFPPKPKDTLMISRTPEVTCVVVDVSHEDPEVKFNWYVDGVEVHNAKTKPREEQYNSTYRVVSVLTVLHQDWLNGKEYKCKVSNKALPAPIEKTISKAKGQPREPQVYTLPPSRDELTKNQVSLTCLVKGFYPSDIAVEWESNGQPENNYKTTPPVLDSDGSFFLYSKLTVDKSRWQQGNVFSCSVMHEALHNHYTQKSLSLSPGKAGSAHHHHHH
Briefly: SPR (ProteOn XPR36), CD3εγ-Fc amine-coupled, bispecific as analyte, equilibrium fit, Example 4A. As to the method: as §1
(§4) For binding kinetic determination to CD3, hu CD3εγ-Fc and cy CD3εγ-Fc (dissolved in pH 4.5 acetate) was immobilized directly onto the sensor surface through amine coupling for 140 sec at a flowrate of 30 μl/min vertically. The baseline was stabilized by injecting PBS-T-EDTA for 60 sec at a flowrate of 40 μl/min horizontally. The analyte (the bispecific molecule) was injected horizontally over the captured CD3εγ-Fc construct for 600 sec at a flowrate of 40 μl/min and a dissociation for 600 sec.
as §3

The next assay deals with T4, Cyno CD3 E+G HuFc-6xHis (cynomolgus monkey).
T4 construct: also called cy CD3εγ-Fc; Recomb; Cyno CD3 εγ
T4 sequence (chain, as listed by the source limits assumed): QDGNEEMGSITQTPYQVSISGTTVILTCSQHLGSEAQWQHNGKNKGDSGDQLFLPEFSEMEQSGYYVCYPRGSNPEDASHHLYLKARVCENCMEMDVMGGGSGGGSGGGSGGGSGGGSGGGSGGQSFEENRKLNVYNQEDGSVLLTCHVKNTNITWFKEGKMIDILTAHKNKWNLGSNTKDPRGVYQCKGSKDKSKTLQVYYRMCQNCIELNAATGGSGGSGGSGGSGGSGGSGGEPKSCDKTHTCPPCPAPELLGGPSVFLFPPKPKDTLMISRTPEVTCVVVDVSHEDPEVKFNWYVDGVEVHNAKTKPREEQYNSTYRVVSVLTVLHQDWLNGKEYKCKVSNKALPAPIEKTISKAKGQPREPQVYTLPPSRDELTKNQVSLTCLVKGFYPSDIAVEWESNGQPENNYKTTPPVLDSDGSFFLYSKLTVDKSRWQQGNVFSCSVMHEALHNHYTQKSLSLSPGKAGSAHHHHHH
The assay is described as above. As to the method: as §1, §4, §3

T2 sequence (P00698 19-147): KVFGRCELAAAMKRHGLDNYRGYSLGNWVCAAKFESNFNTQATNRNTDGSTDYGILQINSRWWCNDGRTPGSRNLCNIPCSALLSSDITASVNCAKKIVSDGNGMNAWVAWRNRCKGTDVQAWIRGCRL

B1: DLL3#3/CD3#2 (bispecific antibody, human IgG1, kappa, lambda, L234A L235A)
chain 1: DIQMTQSPSAMSASVGDRVTITCRASQGISNYLVWFQQKPGKAPKRLIYAVSSLYSGVPSRFSGSGSGTEFTLTISSLQPEDFATYYCLQHDSYPYTFGQGTKLEIKRTVAAPSVFIFPPSDEQLKSGTASVVCLLNNFYPREAKVQWKVDNALQSGNSQESVTEQDSKDSTYSLSSTLTLSKADYEKHKVYACEVTHQGLSSPVTKSFNRGECGGGGSEGKSSGSGSESKSTEGKSSGSGSESKSTGGGGSQVQLVQSGAEVKKPGASVKVSCKASGYTFTSYYVHWVRQAPGQGLEWMVIINPGGGTTSYAQKFLGRVTMTRDTSTNTVYMELKSLRSEDTAVYYCARGEAVTGNYFYYGMDVWGQGTTVTVSSASTKGPSVFPLAPSSKSTSGGTAALGCLVKDYFPEPVTVSWNSGALTSGVHTFPAVLQSSGLYSLSSVVTVPSSSLGTQTYICNVNHKPSNTKVDKRVEPKSCDKTHTCPPCPAPEAAGGPSVFLFPPKPKDTLMISRTPEVTCVVVDVSHEDPEVKFNWYVDGVEVHNAKTKPREEQYNSTYRVVSVLTVLHQDWLNGKEYKCKVSNKALPAPIEKTISKAKGQPREPQVYTLPPSREEMTKNQVSLWCLVKGFYPSDIAVEWESNGQPENNYKTTPPVLDSDGSFFLYSKLTVDKSRWQQGNVFSCSVMHEALHNHYTQKSLSLSPG
chain 2: EAVVTQEPSLTVSPGGTVTLTCRSSTGAVTTSNYANWVQEKPGQLPRGLIGGTNKRAPWVPARFSGSLLGGKAALTLSGAQPEDEAEYFCALWYSNLWVFGGGTKLTVLGQPKAAPSVTLFPPSSEELQANKATLVCLISDFYPGAVKVAWKADGSPVNTGVETTTPSKQSNNKYAASSYLSLTPEQWKSHRSYSCQVTHEGSTVEKTVAPAECSGGGGSEGKSSGSGSESKSTEGKSSGSGSESKSTGGGGSEVQLVESGGGLVQPGGSLKLSCAASGFTFNTYAMNWVRQAPGKGLEWVARIRSKYINYATYYADSVKDRFTISRDDSKNTAYLQMNNLKTEDTAVYYCVRHGNFGNSYVSWFAYWGQGTLVTVSAASTKGPSVFPLAPSSKSTSGGTAALGCLVKDYFPEPVTVSWNSGALTSGVHTFPAVLQSSGLYSLSSVVTVPSSSLGTQTYICNVNHKPSNTKVDKRVEPKSCDKTHTCPPCPAPEAAGGPSVFLFPPKPKDTLMISRTPEVTCVVVDVSHEDPEVKFNWYVDGVEVHNAKTKPREEQYNSTYRVVSVLTVLHQDWLNGKEYKCKVSNKALPAPIEKTISKAKGQPREPQVYTLPPSREEMTKNQVSLSCAVKGFYPSDIAVEWESNGQPENNYKTTPPVLDSDGSFFLVSKLTVDKSRWQQGNVFSCSVMHEALHNRFTQKSLSLSPG
notes: Heterodimer of one DLL3 chain and one CD3 chain (scFab-Fc, knob-in-hole)
In general, Kd refers to the free concentration of one partner at which half of the binding sites on the other are occupied at equilibrium, for simple one-to-one binding. A higher Kd goes with a looser complex. Turning to B1, the “Affinity gap KD hu/cyno DLL3” value with Cyno DLL3-His [1] was found to be 1. For the same molecule, the binding result in assay [2] is recorded as “no binding (tested: 1 µM)”. Besides, the dissociation constant Kd was less than 0.01 nM with Cyno DLL3-His [3], 90 nM with Human CD3 E+G HuFc-6xHis and 100 nM with Cyno CD3 E+G HuFc-6xHis.
